From article PMC11106487
Where “and” joins values, the source holds several entries; their conditions need not be identical. Identical values can stand only once.

Tests used:
[1] = molecular target: GFP-FR (GFP fused to the GPI attachment signal of the folate receptor), expressed in MDCK cells; test: number and brightness (N&B); live polarized MDCK cells on filters, apical surface, CO2-independent medium pH 7.4; control cells and cells treated with latrunculin A (6 uM, 5 min), jasplakinolide (5 uM, 5 min) or blebbistatin (50 uM, 90 min); also after EGTA followed by calcium replenishment for 3 h; B-values ascribed to oligomer classes by a calibration curve of monomeric, dimeric and trimeric GFP
[2] = molecular target: GFP-FR (GFP fused to the GPI attachment signal of the folate receptor), expressed in MDCK cells; test: number and brightness (N&B); live polarized MDCK cells, plasma membrane pool only: cycloheximide 90 min, then with or without EGTA still in the presence of cycloheximide
[3] = molecular target: GFP-FR (GFP fused to the GPI attachment signal of the folate receptor), expressed in MDCK cells; test: number and brightness (N&B); live polarized MDCK cells, Golgi pool: apical trypsin 25 ug/mL for 25 min to remove the surface pool, untreated (CTR), imaged at the Golgi level
[4] = molecular target: GFP-FR, stably expressed in CHO cells; test: number and brightness (N&B); live CHO cells, 2 days in culture, cell surface imaged at the cell periphery; untreated control

Substance: GFP-FR (GFP fused to the GPI attachment signal of the folate receptor), expressed in MDCK cells
- brightness (B) [1]: 1.21
- brightness (B) upon latrunculin A [1]: 1.23
- mean brightness (B), control of the EGTA experiment [1]: 1.29
- stoichiometry N [1]: 3 and 4
- mean brightness (B), plasma membrane pool, control [2]: 1.19
- mean brightness (B), plasma membrane pool, upon EGTA [2]: 1.2
- mean brightness (B), Golgi pool, control [3]: 1.2

Substance: GFP-FR, stably expressed in CHO cells
- brightness (B) [4]: 1.3
- stoichiometry N [4]: 3 and 4
